Measured values published in patent US9260500B2, “Peptide and use thereof” (Takeda Pharmaceutical Company Limited, priority 2009, dated 2016).
Starred links: 1 amine or outer side, 2 acyl side, 3 side chain; linkers in the order of their positions; H or OH if unused. Non-standard residues stand in square brackets, D forms with d. Azetidine3carboxylic = O=C(C1CN([*:1])C1)[*:2]; tBuAla = CC(C)(C)C[C@H](N)C(=O)O; 4Pal = N[C@@H](Cc1ccncc1)C(=O)O; dHyp = O=C(O)[C@H]1C[C@H](O)CN1; Cha = N[C@@H](CC1CCCCC1)C(=O)O; dCha = N[C@H](CC1CCCCC1)C(=O)O; Aipe = 3-aminobutanoic acid; Iva = CC[C@](C)(N)C(=O)O; dAze = O=C(O)[C@H]1CCN1; Abu = CC[C@H](N)C(=O)O; Aib = CC(C)(N)C(=O)O

What was measured:
[1] = biological target: T1, human Y2 receptor (Homo sapiens, UniProt P49146); test: Human Y2 Receptor G Protein Binding Assay (GBA), [35S]GTPγS; type: biochemical; conditions: EC50 of test compound/EC50 of PYY(3-36) (PYY3-36 taken as 1), hY2R/CHO membrane fraction
T1 construct: expressed in transfected cells; membrane fraction
T1 sequence (P49146 1-381): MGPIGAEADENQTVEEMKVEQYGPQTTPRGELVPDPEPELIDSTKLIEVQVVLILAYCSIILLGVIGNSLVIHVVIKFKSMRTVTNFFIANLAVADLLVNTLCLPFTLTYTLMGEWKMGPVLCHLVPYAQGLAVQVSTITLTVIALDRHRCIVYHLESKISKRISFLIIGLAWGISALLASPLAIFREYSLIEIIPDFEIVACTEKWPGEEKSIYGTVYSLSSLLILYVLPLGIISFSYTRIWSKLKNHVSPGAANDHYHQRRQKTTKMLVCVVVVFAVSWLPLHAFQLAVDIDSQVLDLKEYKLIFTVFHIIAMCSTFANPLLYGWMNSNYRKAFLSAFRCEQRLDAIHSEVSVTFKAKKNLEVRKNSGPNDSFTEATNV
Protocol: (3) Test Method: Human Y2 Receptor G Protein Binding Assay (GBA)
The agonist activity of the compound of the present invention against the human Y2 receptor was measured by the method described below.
2 μL of the test compound, serially diluted with DMSO from 100 μM to 1 nM, was dispensed to a 96-well plate, and 100 μL of the membrane fraction, previously diluted with an assay buffer (50 mM Tris, 5 mM MgCl2, 150 mM NaCl, […], 0.03% NaN3, 0.1% BSA, pH 7.4) to 1 μg protein/mL, was dispensed thereto, subsequently, 100 μL of a [^35S]GTPγS (NEG030H, PerkinElmer, previously diluted with the assay buffer to 1 nM) was added, and they were mixed by pipetting. After incubation at room temperature for 120 minutes, the mixture was filtered through the cell harvester FilterMate (PerkinElmer) using the UniFilter-96 GF/C (PerkinElmer), and the filter was washed 3 times with a filtering buffer (50 mM Tris, 5 mM MgCl2, 150 mM NaCl, 0.03% NaN3, 0.05% CHAPS, pH 7.4). Thereafter, UniFilter-96 GF/C was dried in a mechanical drier for 1 hour, 15 μl of the liquid scintillator MicroScint O (PerkinElmer) was added to each well, and a measurement was taken using TopCount (PerkinElmer). The data obtained were analyzed using Prism to calculate the EC50 value. The agonist activity of the test compound was expressed as a ratio to the EC50 value of PYY3-36 taken as 1 (EC50 Ratio: EC50 of test compound/EC50 of PYY(3-36)). The results are shown in the GBA column in Table 5 (Table 5-1-Table 5-10).

[2] = biological target: T1, human Y2 receptor; test: Receptor Binding Assay (RBA) for Human Y2, [125I]-PYY displacement on hY2R/CHO membrane fraction; conditions: IC50 of test compound/IC50 of PYY(3-36) (PYY(3-36) taken as 1)
Protocol: (1) Construction of Expression Plasmid for the Human Y2 Receptor (Y2R) Gene
PCR was performed by a reaction using Pfu DNA polymerase ([…]), with a human brain cDNA (PT3158-1, Clontech) as the template, wherein synthetic DNAs with the following sequences were used as a combination of 5′ and 3′ primers, whereby the human Y2R gene was cloned. Primer 1 was prepared on the basis of base sequence information on the human Y2R gene (Refseq ID No. NM_000910) with the addition of Kozak's consensus sequence. Primer 2 was prepared on the basis of base sequence information on the human Y2R gene.
The PCR product obtained was cloned into pCR4-Blunt-TOPO (Invitrogen), and the plasmid was extracted according to a conventional method (QIAwell 8 Plus, QIAGEN). After confirming the base sequence, the human Y2R gene was re-cloned by a PCR reaction with the plasmid DNA as the template, using Primer 1 as the 5′ primer and Primer 2 as the 3′ primer. The PCR was performed using the Pyrobest DNA polymerase (TaKaRa). The PCR product obtained was re-cloned into pCR-Blunt II-TOPO (Invitrogen), and the plasmid was extracted according to a conventional method (QIAGEN). An Xho I restriction enzyme digestion site and an Spe I restriction enzyme digestion site are present in the cloning site of the pCR-Blunt II-TOPO; a plasmid clone was selected wherein the human Y2R gene was inserted in the orientation such that the Xho I restriction enzyme digestion site was positioned upstream of Primer 1, and the Spe I restriction enzyme digestion site was positioned downstream of Primer 2. After confirming the base sequence, the plasmid clone was digested with the restriction enzymes Xho I and Spe I to yield a DNA fragment. The DNA fragment was inserted into the animal cell expression vector pAKKO-111H (the same plasmid as pAKKO-1.111H described in Biochem. Biophys. Acta, Hinuma, S. et al., 1219, 251-259 (1994)), which was enzymatically digested with Sal I and Spe I, to yield the expression plasmid pAK-hY2R (pAKKO-111H/Y2R).
(2) Test Method: Receptor Binding Assay (RBA) for Human Y2
A human NPY2R (hY2R) stable expression cell line was acquired by transducing the animal cell expression plasmid pAK-hY2R into CHO/dhfr-cells using the CellPhect Transfection kit (Amersham Pharmacia Biotech Co.). First, 240 μl of Buffer A (attached to the CellPhect Transfection kit) was added to 9.6 μg of the plasmid DNA dissolved in 240 μl of distilled water; this mixture was stirred and allowed to stand for 10 minutes, after which 480 μL of Buffer B (attached to the CellPhect Transfection kit) was added, and the mixture was vigorously stirred to form a liposome containing the DNA. 2.5×10^5 or 4×10^5 CHO/dhfr− cells (obtained from ATCC) were seeded to 60 mm petri dishes, and cultured in Ham's F-12 medium (Sigma Co.) containing 10% fetal bovine serum (BioWest Co.) at 37° C. in 5% gaseous carbon dioxide for 1 day, after which 480 μL of the liposome was added drop by drop on to the cells in each petri dish. This was cultured at 37° C. in 5% gaseous carbon dioxide for 6 hours, after which the cells were twice washed with serum-free Ham's F-12 medium; 3 mL of 15% glycerol was added onto the cells in the petri dish and treated for 2 minutes. This was again washed 3 times with serum-free Ham's F-12 medium, after which the cells were cultured in Ham's F-12 medium containing 10% fetal bovine serum at 37° C. in 5% gaseous carbon dioxide. The cells were dispersed by trypsinization and recovered from the petri dishes, and seeded to a 6-well plate at 2.5×10^4 or 4×10^4 cells per well; cultivation was begun in Dulbecco's modified Eagle medium <DMEM> medium (Sigma Co.) containing dialyzed 10% fetal bovine serum (Invitrogen Co.) at 37° C. in 5% gaseous carbon dioxide. Since plasmid-introduced transformant CHO cells grow in the medium, whereas cells without plasmid introduction die gradually, about 20 colonies of transformed CHO cell that had grown 9-13 days after the start of the cultivation were isolated. […]

| Substance | GBA EC50 Ratio [1] | RBA IC50 Ratio [2] |
| --- | --- | --- |
| Ac-[Abu23, D-Pro24, Abu26, Cha27,28,36, Aib31]-PYY(23-36) (Ac-[Abu][dP]R[Abu][Cha][Cha]NL[Aib]TRQR[Cha]-NH2; SMILES CC[C@H](NC(=O)[C@H](CCCNC(=N)N)NC(=O)[C@H]1CCCN1C(=O)[C@H](CC)NC(C)=O)C(=O)N[C@@H](CC1CCCCC1)C(=O)N[C@@H](CC1CCCCC1)C(=O)N[C@@H](CC(N)=O)C(=O)N[C@@H](CC(C)C)C(=O)NC(C)(C)C(=O)N[C@H](C(=O)N[C@@H](CCCNC(=N)N)C(=O)N[C@@H](CCC(N)=O)C(=O)N[C@@H](CCCNC(=N)N)C(=O)N[C@@H](CC1CCCCC1)C(N)=O)[C@@H](C)O) [compound No. 105] | 4.0 | 6.9 |
| Ac-[Aipe24, Pya(4)26, Cha27,36, Aib28,31, Lys30]-PYY(23-36) (Ac-S[Aipe]R[4Pal][Cha][Aib]NK[Aib]TRQR[Cha]-NH2) [compound No. 243] | 2 | 1.3 |
| Ac-[Ala26, Ile28,31, Arg(Me)35]-PYY(22-36) [compound No. 1] | 13 | 50 |
| Ac-[Arg23, D-Pro24, Iva25, Pya(4)26, Cha27,36, Aib28,31, Lys30]-PYY(23-36) (Ac-R[dP][Iva][4Pal][Cha][Aib]NK[Aib]TRQR[Cha]-NH2; SMILES CC[C@](C)(NC(=O)[C@H]1CCCN1C(=O)[C@H](CCCNC(=N)N)NC(C)=O)C(=O)N[C@@H](Cc1ccncc1)C(=O)N[C@@H](CC1CCCCC1)C(=O)NC(C)(C)C(=O)N[C@@H](CC(N)=O)C(=O)N[C@@H](CCCCN)C(=O)NC(C)(C)C(=O)N[C@H](C(=O)N[C@@H](CCCNC(=N)N)C(=O)N[C@@H](CCC(N)=O)C(=O)N[C@@H](CCCNC(=N)N)C(=O)N[C@@H](CC1CCCCC1)C(N)=O)[C@@H](C)O) [compound No. 321] | 0.78 | 0.88 |
| Ac-[Aze(3)24, Cha27,28,36, Aib31]-PYY(23-36) (Ac-S[Azetidine3carboxylic]RH[Cha][Cha]NL[Aib]TRQR[Cha]-NH2; SMILES CC(=O)N[C@@H](CO)C(=O)N1CC(C(=O)N[C@@H](CCCNC(=N)N)C(=O)N[C@@H](Cc2c[nH]cn2)C(=O)N[C@@H](CC2CCCCC2)C(=O)N[C@@H](CC2CCCCC2)C(=O)N[C@@H](CC(N)=O)C(=O)N[C@@H](CC(C)C)C(=O)NC(C)(C)C(=O)N[C@H](C(=O)N[C@@H](CCCNC(=N)N)C(=O)N[C@@H](CCC(N)=O)C(=O)N[C@@H](CCCNC(=N)N)C(=O)N[C@@H](CC2CCCCC2)C(N)=O)[C@@H](C)O)C1) [compound No. 113] | 4.7 | 11 |
| Ac-[D-Aze(2)24, Cha27,28,36, Aib31]-PYY(23-36) (Ac-S[dAze]RH[Cha][Cha]NL[Aib]TRQR[Cha]-NH2; SMILES CC(=O)N[C@@H](CO)C(=O)N1CC[C@@H]1C(=O)N[C@@H](CCCNC(=N)N)C(=O)N[C@@H](Cc1c[nH]cn1)C(=O)N[C@@H](CC1CCCCC1)C(=O)N[C@@H](CC1CCCCC1)C(=O)N[C@@H](CC(N)=O)C(=O)N[C@@H](CC(C)C)C(=O)NC(C)(C)C(=O)N[C@H](C(=O)N[C@@H](CCCNC(=N)N)C(=O)N[C@@H](CCC(N)=O)C(=O)N[C@@H](CCCNC(=N)N)C(=O)N[C@@H](CC1CCCCC1)C(N)=O)[C@@H](C)O) [compound No. 153] | 1.3 | 1.7 |
| Ac-[D-Cha24, Abu26, Cha27,28,36, Aib31]-PYY(24-36) (Ac-[dCha]R[Abu][Cha][Cha]NL[Aib]TRQR[Cha]-NH2; SMILES CC[C@H](NC(=O)[C@H](CCCNC(=N)N)NC(=O)[C@@H](CC1CCCCC1)NC(C)=O)C(=O)N[C@@H](CC1CCCCC1)C(=O)N[C@@H](CC1CCCCC1)C(=O)N[C@@H](CC(N)=O)C(=O)N[C@@H](CC(C)C)C(=O)NC(C)(C)C(=O)N[C@H](C(=O)N[C@@H](CCCNC(=N)N)C(=O)N[C@@H](CCC(N)=O)C(=O)N[C@@H](CCCNC(=N)N)C(=O)N[C@@H](CC1CCCCC1)C(N)=O)[C@@H](C)O) [compound No. 84] | 13 | 15 |
| Ac-[D-Hyp24, Cha27,28,36, Aib31]-PYY(23-36) (Ac-S[dHyp]RH[Cha][Cha]NL[Aib]TRQR[Cha]-NH2; SMILES CC(=O)N[C@@H](CO)C(=O)N1C[C@@H](O)C[C@@H]1C(=O)N[C@@H](CCCNC(=N)N)C(=O)N[C@@H](Cc1c[nH]cn1)C(=O)N[C@@H](CC1CCCCC1)C(=O)N[C@@H](CC1CCCCC1)C(=O)N[C@@H](CC(N)=O)C(=O)N[C@@H](CC(C)C)C(=O)NC(C)(C)C(=O)N[C@H](C(=O)N[C@@H](CCCNC(=N)N)C(=O)N[C@@H](CCC(N)=O)C(=O)N[C@@H](CCCNC(=N)N)C(=O)N[C@@H](CC1CCCCC1)C(N)=O)[C@@H](C)O) [compound No. 114] | 0.9 | 1.1 |
| Ac-[D-Hyp24, Cha27,36, Leu(Me)28, Lys30, Aib31]-PYY(23-36) (Ac-S[dHyp]RH[Cha][tBuAla]NK[Aib]TRQR[Cha]-NH2; SMILES CC(=O)N[C@@H](CO)C(=O)N1C[C@@H](O)C[C@@H]1C(=O)N[C@@H](CCCNC(=N)N)C(=O)N[C@@H](Cc1c[nH]cn1)C(=O)N[C@@H](CC1CCCCC1)C(=O)N[C@@H](CC(C)(C)C)C(=O)N[C@@H](CC(N)=O)C(=O)N[C@@H](CCCCN)C(=O)NC(C)(C)C(=O)N[C@H](C(=O)N[C@@H](CCCNC(=N)N)C(=O)N[C@@H](CCC(N)=O)C(=O)N[C@@H](CCCNC(=N)N)C(=O)N[C@@H](CC1CCCCC1)C(N)=O)[C@@H](C)O) [compound No. 203] | 0.76 | 0.38 |
| Ac-[D-Hyp24, Pya(4)26, Cha27,36, Aib28,31, Lys30]-PYY(23-36) [compound No. 207] | 0.86 | 1.1 |
